Our source for the stoichiometry N values is paper PMC11649247.

The experiment concerns the target Mycobacterium tuberculosis polyketide synthase 13 (Mt-Pks13) (Mycobacterium tuberculosis) (UniProt I6X8D2). In words: AUC; sedimentation velocity at pH 6 (of a series from pH 6 to 8); triple buffer (20 mM each sodium acetate, Tris/HCl, CHES), 150 mM NaCl, 2.5 mM βME; 30 000 r.p.m.; 4 °C or 20 °C; dimer to monomers.

As to “Mycobacterium tuberculosis polyketide synthase 13 (Mt-Pks13) (from UniProt I6X8D2 1-1733) (enzyme)”, the stoichiometry N stood at 2.

Broadly, the stoichiometry N is a count of units in the complex or per binding partner.
